From the Human Domainome abundance scans (Beltran et al. 2025)

B1: Homeobox protein cut-like 1, residues 548 to 629; numbered along this chain, P39880 (parent)
chain: GEEMDTAEIARQVKEQLIKHNIGQRIFGHYVLGLSQGSVSEILARPKPWNKLTVRGKEPFHKMKQFLSDEQNILALRSIQGR

Variants of: B1
Test: abundance fitness (aPCA) (normalised: wild type 0, dead -1); higher = more abundant; growth selection in yeast, the domain comes from the species named
Settings: Homo sapiens

Abundance fitness of substitutions, site by site:
I9: S -0.672 | P -0.605 | K -0.508 | N -0.643 | R -0.69 | L -0.13 | M -0.292 | G -0.623 | V -0.103 | Q -0.583 | F -0.547 | E -0.517 | W -0.82 | A -0.695 | C -0.459 | Y -0.495 | H -0.56 | D -0.428 | T -0.267
V13: M -0.263 | K -0.548 | A -0.415 | C -0.238 | G -0.53 | R -0.586 | N -0.511 | L -0.423 | F -0.911 | W -0.721 | D -0.486 | P -0.564 | T -0.198 | Q -0.574 | S -0.56 | E -0.608 | H -0.574 | I -0.102 | Y -0.812
K14: I -0.24 | T -0.396 | L -0.401 | R -0.111 | S 0.565 | E -0.282 | N -0.058 | A -0.324 | H 0.1 | D -0.343 | C -0.263
G23: H -0.009 | F -0.293 | P 0.08 | R -0.068 | C -0.054 | W -0.268 | T -0.013 | Y -0.108 | M -0.12 | D 0.114 | K 0.012 | N 0.105 | S 0.023 | A -0.004 | V -0.196 | L -0.081 | Q 0.043 | I -0.309
A10: G -0.552 | H -1.24 | L -0.874 | S -0.151 | T -0.08 | W -0.755 | Q -0.798 | R -0.792 | M -0.947 | V 0.032 | D -0.835 | Y -0.863 | K -0.746 | N -0.692 | P -0.744 | I -0.249 | E -0.822
R25: Q 0.019 | F -0.096 | A 0.102 | K 0.022 | G 0.082 | D 0.138 | M -0.079 | E 0.158 | P -0.068 | N 0.017 | I -0.122 | L -0.192 | H 0.059
R11: A -0.157 | Y -0.249 | K 0.069 | T -0.131 | Q -0.24 | P -0.646 | W -0.506 | C -0.327 | N -0.205 | F -0.243 | D -0.274 | V -0.311 | G -0.18 | M -0.112 | H -0.102
E3: T -0.057 | V -0.098 | Y -0.091 | W -0.017 | S -0.118 | R -0.145
A7: G -0.17 | R -0.093 | D -0.136 | P -0.532 | Y -0.093 | L -0.082 | H 0.01 | V -0.121 | K -0.003 | C -0.081 | M -0.107 | W -0.143 | F -0.053 | S -0.09 | E -0.029 | Q -0.028
H20: K -0.391 | I -0.601 | D -0.722 | L -0.361 | G -0.584 | P -0.677 | E -0.503 | R -0.464 | N -0.178 | C -0.466 | F -0.029 | A -0.348 | V -0.6 | W -0.074 | T -0.608 | S -0.398
I18: W -0.13 | C 0.014 | Q 0.084 | F 0.085 | H -0.052 | A 0.007 | Y 0.008 | N 0.012 | G -0.105 | K 0.075 | V 0 | L -0.031 | E 0.064 | M -0.005 | S 0.014
D5: L -0.817 | V -0.537 | F -0.644 | H -0.294 | W -0.782 | S -0.082 | N -0.076 | Y -0.561 | I -0.689 | Q -0.226 | P -0.269 | K -0.274 | T -0.006 | A -0.204 | R -0.541 | M -0.638 | E -0.163 | G -0.395
E8: I -0.22 | F -0.22 | G -0.233 | L -0.091 | D -0.032 | N -0.211 | W -0.231 | H -0.135 | R -0.17 | Q -0.104 | S -0.119 | M -0.149 | A -0.118 | P -0.979 | T -0.118 | K -0.113 | V -0.135 | C -0.219
Q24: C -0.108 | G -0.386 | W 0.025 | F -0.094 | Y -0.013 | S -0.118 | I -0.032 | V 0.043 | A -0.129 | E 0.053 | N -0.069 | T -0.069 | R -0.159 | H 0.021 | M -0.032 | P -0.079 | D -0.091
Q16: H -0.113
M4: N -0.331 | Y -0.203 | P -0.318 | K -0.36 | W -0.23 | R -0.517 | Q -0.2 | F -0.244 | G -0.523 | C -0.677 | I 0.101 | A -0.432 | S -0.355 | L 0.002 | D -0.304 | H -0.304 | E -0.191 | T -0.204
N21: F -0.534 | H 0.009 | T -0.305 | W -0.759 | A -0.151 | G 0.025 | P -0.72 | Y -0.469 | C -0.181 | S -0.084 | K -0.055 | I -1.06 | D -0.03 | E -0.04 | Q -0.021 | V -0.518 | M -0.378 | R -0.115
L17: S -0.635 | R -0.609 | Q -0.612 | F -0.808 | V -0.665 | E -0.613 | T -0.518 | D -0.774 | W -0.808 | C -0.493 | Y -0.842 | M -0.405 | P -0.538 | I -0.358 | N -0.696 | A -0.724 | H -0.939
E15: F -0.363 | R -0.207 | I -0.003 | S 0.034 | D -0.211 | Y -0.091 | V -0.19 | L -0.03 | Q -0.077 | T -0.143 | A -0.023 | G -0.332 | N -0.328 | C 0.094 | K -0.573
I22: M -0.612 | T -0.687 | C -0.491 | N -0.701 | F -0.49 | V -0.071 | S -0.801 | Q -0.797 | L -0.239 | P -0.718 | Y -0.916 | D -0.941 | G -0.86 | K -0.931
T6: I -1.14 | W -0.884 | V -0.839 | F -0.822 | Y -0.901 | D -0.859 | R -0.896 | M -1.01 | E -0.921 | P -0.385 | C -0.66 | A -0.697 | S -0.468 | L -1.02 | K -0.81 | G -0.946
K19: W -0.618 | L -0.201 | V -0.271 | M -0.293 | D -0.344 | E -0.26 | I -0.244 | H 0.029 | P -0.763 | A -0.171 | Q -0.18 | F -0.187 | C -0.363 | N -0.216 | Y -0.242 | R -0.117 | G -0.513
